Where a chain is given by its changes, count along the chain named. Names may count otherwise.
B1: C288S: HCPB mutant with C288S (protein, UniProt P15086 111-417, looked up, variant C288S)
Carboxypeptidase B: ATGHSYEKYNKWETIEAWTQQVATENPALISRSVIGTTFEGRAIYLLKVGKAGQNKPAIFMDCGFHAREWISPAFCQWFVREAVRTYGREIQVTELLDKLDFYVLPVLNIDGYIYTWTKSRFWRKTRSTHTGSSCIGTDPNRNFDAGWCEIGASRNPCDETYCGPAAESEKETKALADFIRNKLSSIKAYLTIHSYSQMMIYPYSYAYKLGENNAELNALAKATVKELASLHGTKYTYGPGATTIYPAAGGSDDWAYDQGIRYSFTFELRDTGRYGFLLPESQIRATSEETFLAIKYVASYVLEHLY
B2: C288A: HCPB mutant with C288A (protein, UniProt P15086 111-417, looked up, variant C288A)
Carboxypeptidase B: B1 Carboxypeptidase B with S288A

Legend:
[1] = Activity against Hipp-Arg in crude E. coli periplasmic shockate relative to mature HCPB (Example 16); assay type: biochemical
Excerpt: A number of other mutant HCPBs have been constructed in a similar manner to the methods described in Reference Examples 7 and 8, and Examples 12, 13, 14 and 15. In each case oligos were constructed to introduce specific changes in the gene sequence by methods similar to those described above. In some cases additional mutations were identified upon complete sequencing of the mutated gene, and these were presumably introduced during the PCR reactions. Mutants with enzyme activity against substrate analogues (see Example 18 below) have been identified, and examples of these are given in Table 4 below. […] This material is subsequently referred to as periplasmic shockate or shockate and is prepared by the following procedure.
1. A single colony was used to inoculate 75 ml of L-broth nutrient media containing 10 μg/ml tetracycline and arabinose to a final concentration of 0.01% (w/v). […]
The activity of [G251T,D253K]HCPB was measured using the assay conditions described in Example 17 but using either 50 μl of a neat or 1 in 10 or 1 in 100 dilution of [G251T,D253K]HCPB crude E.coli periplasmic shockate (shockate) sample in place of purified enzyme. […] The amount of Hippuric acid produced in 24 h was quantified by HPLC as described in Example 17 and the results are shown in Table 6 and are expressed as the percentage conversion of substrate into product in 24 h at 37° C.

Molecule | melting point | Hipp-Arg, activity relative to mature HCPB [1]
O=C(O)CCC(=O)Oc1ccc(N(CCCl)CCCl)cc1 | 98 to 100 °C | –
B1 | – | c (activity 75% of mature HCPB (described in Reference Examples 7 and 8))
B2 | – | d (activity 25% of mature HCPB (described in Reference Examples 7 and 8))

From patent publication US6436691B1, “Chemical compounds” (Zeneca Limited, priority 1995, dated 2002)
